How the values were obtained:
[1] = target: Sec61 channel with Sec61p S179P, in reconstituted proteoliposomes (S. cerevisiae | S. cerevisiae (endogenous in the yeast membranes)) (UniProt P32915)
[2] = target: Sec61 channel with Sec61p S179P/S353C, in reconstituted proteoliposomes (S. cerevisiae | S. cerevisiae (endogenous in the yeast membranes)) (UniProt P32915)
[3] = target: Sec61 channel with Sec61p S353C, in reconstituted proteoliposomes (S. cerevisiae | S. cerevisiae (endogenous in the yeast membranes)) (UniProt P32915)
[4] = target: Sec61 channel with Sec61p of sec61-302 (D168G, S179P, F263L, S353C), in reconstituted proteoliposomes (S. cerevisiae | S. cerevisiae (endogenous in the yeast membranes)) (UniProt P32915)
[5] = target: Sec61 channel, wild type (Sec61p, Sbh1p, Sss1p), in reconstituted proteoliposomes (S. cerevisiae | S. cerevisiae (endogenous in the yeast membranes)) (UniProt P32915)
[6] = target: Sec61 channel with Sec61p of sec61-302 (D168G, S179P, F263L, S353C), in reconstituted proteoliposomes (S. cerevisiae | S. cerevisiae (endogenous in the yeast membranes)) (UniProt P32915); experiment: flotation of proteoliposomes in a sucrose gradient; 20 eq of reconstituted proteoliposomes with 2 pmol 19S RP in 30 µl binding buffer (20 mM Hepes-KOH pH 7.2, 250 mM sucrose, 120 mM KOAc, 5 mM Mg(OAc)2, 5 mM ATP, 1 mM DTT), 20 min on ice then 10 min at RT; flotation 55,000 rpm, 4°C, 1 hr; 9 fractions, 19S RP detected by anti-FLAG blot
[7] = target: Sec61 channel, wild type (Sec61p, Sbh1p, Sss1p), in reconstituted proteoliposomes (S. cerevisiae | S. cerevisiae (endogenous in the yeast membranes)) (UniProt P32915); experiment: as above

t1/2 of Δgpαf export and degradation from microsomes in the cell-free ERAD assay with 1 mg/ml cytosol (limiting 19S RP); wildtype kinetics [1]: 20 min
t1/2 of Δgpαf export and degradation from microsomes in the cell-free ERAD assay with 1 mg/ml cytosol (limiting 19S RP) [2]: 45 min
t1/2 of Δgpαf export and degradation from microsomes in the cell-free ERAD assay with 1 mg/ml cytosol (limiting 19S RP) [3]: 45 min
t1/2 of Δgpαf export and degradation from microsomes in the cell-free ERAD assay with 1 mg/ml cytosol (limiting 19S RP) [4]: 45 min
t1/2 of Δgpαf export and degradation from microsomes in the cell-free ERAD assay with 1 mg/ml cytosol (limiting 19S RP) [5]: 20 min
percent of 19S RP bound [6]: 20%
percent of 19S RP bound [7]: 40%
Substance: proteasome 19S regulatory particle (RP), FLAG-tagged on Rpt1 (from UniProt P33299 1-467) (complex)

Source: paper PMC4319758
